Where a chain is given by its changes, count along the chain named. Names may count otherwise. “And” between values parts separate entries of the source, which are not always exact repeats. Equal values may be shown once. Values belong to the molecule of their own block, whether it stands above or below them.
Assays:
[1] = biological target: At-His-cpSRP43, fluorescently labeled (Arabidopsis thaliana) (UniProt O22265); experiment: MST; labeled cpSRP43 (20 nM) or eGFP-Cg-43 (75 nM) constant, cpSRP54 constructs titrated; 300 mM NaCl, 2.7 mM KCl, 10 mM Na2HPO4, 1.8 mM K2HPO4, 5 mM MgCl2, 2 mM DTT, 0.05% Tween20, pH 7.3; Monolith NT.115, MST power 20%, LED power 20%
[2] = biological target: Cg-His-eGFP-cpSRP43 (Chaetosphaeridium globosum); experiment: as above
[3] = biological target: Chaetosphaeridium globosum cpSRP43(D189Y) (Chaetosphaeridium globosum); experiment: as above
[4] = test system: Pp-cpSRP54-His (Physcomitrella patens); experiment: MST; conditions: 5 mM Mg2+, MST: 300 mM NaCl, 2.7 mM KCl, 10 mM Na2HPO4, 1.8 mM K2HPO4, 5 mM MgCl2, 2 mM DTT, 0.05% Tween20, pH 7.3, labeled Pp-cpSRP54 10-20 nM, temperature not stated …
[5] = biological target: Pp-His-cpSRP43, fluorescently labeled (Physcomitrella patens); experiment: MST; labeled cpSRP43 (20 nM) or eGFP-Cg-43 (75 nM) constant, cpSRP54 constructs titrated; 300 mM NaCl, 2.7 mM KCl, 10 mM Na2HPO4, 1.8 mM K2HPO4, 5 mM MgCl2, 2 mM DTT, 0.05% Tween20, pH 7.3; Monolith NT.115, MST power 20%, LED power 20%
[6] = biological target: T1, At-His-cpSRP54 (Arabidopsis thaliana, UniProt P37107 76-564); experiment: as above; conditions: both partners purified
T1 construct: cpSRP54 of Arabidopsis thaliana; the results call it 'full-length' as against the M-domain; also called At-His-54; At-54; source: E. coli BL21(DE3) or Rosetta2(DE3), purified (Ni-NTA, desalted); not shown: His tag, N-terminal, kept
T1 sequence (looked up): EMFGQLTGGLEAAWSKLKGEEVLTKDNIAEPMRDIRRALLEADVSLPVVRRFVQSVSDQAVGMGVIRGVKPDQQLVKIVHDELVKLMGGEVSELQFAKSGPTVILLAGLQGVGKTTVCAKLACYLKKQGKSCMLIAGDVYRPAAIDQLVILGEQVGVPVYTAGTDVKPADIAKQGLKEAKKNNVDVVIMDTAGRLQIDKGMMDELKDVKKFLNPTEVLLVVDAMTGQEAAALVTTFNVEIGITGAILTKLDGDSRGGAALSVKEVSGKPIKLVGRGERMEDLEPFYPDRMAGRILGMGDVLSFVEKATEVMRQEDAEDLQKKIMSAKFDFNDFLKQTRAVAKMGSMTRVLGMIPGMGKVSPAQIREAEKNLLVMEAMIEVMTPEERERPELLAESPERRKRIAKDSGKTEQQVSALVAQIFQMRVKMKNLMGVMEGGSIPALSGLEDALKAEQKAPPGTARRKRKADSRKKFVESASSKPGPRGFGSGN

[7] = biological target: T1, At-His-cpSRP54; experiment: pull-down; GST-cpSRP43 constructs on glutathione-sepharose, 20 μg of GST- and His-fusion constructs; eluates by SDS-PAGE and Coomassie staining; conditions: both partners purified

Kd [1]: 60 nM and 90 nM
Molecule: At-His-cpSRP54M (domain or fragment)

Kd [2]: 11000 nM | Kd [3]: 10000 nM and 11000 nM
Molecule: Cg-His-cpSRP54M (domain or fragment)

Molecule: Ec-SRP RNA
Kd ([4]; one of two replicate values): 17 nM and 27 nM

Molecule: Ot-cpSRP RNA
Kd [4]: 185 nM

Kd [5]: 9000 nM
Molecule: Pp-cpSRP54-His (natural protein)

Molecule: Pp-cpSRP RNA
Kd [4]: 1300 nM

B1: At-His-cpSRP43, fluorescently labeled (natural protein, Arabidopsis thaliana, UniProt O22265 57-373, looked up)
chain: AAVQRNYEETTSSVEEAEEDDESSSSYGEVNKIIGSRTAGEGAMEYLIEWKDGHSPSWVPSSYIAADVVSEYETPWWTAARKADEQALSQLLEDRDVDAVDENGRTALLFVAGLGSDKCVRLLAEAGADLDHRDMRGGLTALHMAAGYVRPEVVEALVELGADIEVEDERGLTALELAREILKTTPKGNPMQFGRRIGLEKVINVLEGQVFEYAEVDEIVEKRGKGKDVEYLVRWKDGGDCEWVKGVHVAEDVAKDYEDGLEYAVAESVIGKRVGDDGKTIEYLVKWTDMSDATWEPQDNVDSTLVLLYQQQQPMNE
modifications: fluorescent label on amines (Monolith NT.115 Protein Labeling Kit RED-NHS)
notes: cpSRP43 of Arabidopsis thaliana; the results speak of the 'full-length Arabidopsis thaliana cpSRP subunits'; the construct is not described among the plasmids; also called Ath-His-cpSRP43; At-43; source: E. coli BL21(DE3) or Rosetta2(DE3), purified (Ni-NTA, desalted); not shown: His tag, N-terminal, kept
Kd [6]: 50 nM and 60 nM

B2: At-GST-cpSRP43(Y269D) (natural protein, Arabidopsis thaliana, UniProt O22265 57-373, looked up)
chain: B1 chain with Y213D
notes: cpSRP43 of Arabidopsis thaliana in pGEX4T3, with Y269D; made from the construct of m9; also called pGEX4T3-At-GST-cpSRP43(Y269D); source: E. coli BL21(DE3) or Rosetta2(DE3), purified (glutathione-sepharose); not shown: GST, N-terminal, kept
binding result [7]: binds

B3: At-GST-cpSRP43(Y269E) (natural protein, Arabidopsis thaliana, UniProt O22265 57-373, looked up)
chain: B1 chain with Y213E
notes: cpSRP43 of Arabidopsis thaliana in pGEX4T3, with Y269E; made from the construct of m9; also called pGEX4T3-At-GST-cpSRP43(Y269E); source: E. coli BL21(DE3) or Rosetta2(DE3), purified (glutathione-sepharose); not shown: GST, N-terminal, kept
binding result [7]: binds

B4: At-GST-cpSRP43 (natural protein, Arabidopsis thaliana, UniProt O22265 57-373, looked up)
chain: B1 chain
notes: cpSRP43 of Arabidopsis thaliana in pGEX4T3; also called At-GST-43; GST-cpSRP43 from Arabidopsis thaliana; source: E. coli BL21(DE3) or Rosetta2(DE3), purified (glutathione-sepharose); not shown: GST, N-terminal, kept
binding result [7]: binds
